For assay [1], the target named is T1, APC8 subunit of the anaphase-promoting complex/cyclosome (human, UniProt Q9UJX2 1-597).
T1 construct: APC8, human, subunit of recombinant APC/C; Stood assembled in the recombinant APC/C; the contacts are told of the copy APC8(B); also called APC8(B); source: recombinant human APC/C, modified MultiBac system, as described previously [51,52]; purified within the APC/C
As to the kind of experiment: cryo-EM structure; APC/C^CDH1:EMI1 ternary complex, 2.9 Å; complex and grids prepared as described previously [19]; Titan Krios, Falcon 3; APC/C subunits co-expressed, complex purified. As to conditions: both partners purified.

For assay [2], the target named is T2, APC1 subunit of the anaphase-promoting complex/cyclosome (human, UniProt Q9H1A4 1-1944).
T2 construct: APC1, human, subunit of recombinant APC/C; Stood assembled in the unphosphorylated recombinant APC/C; source: recombinant human APC/C, modified MultiBac system, as described previously [51,52]; purified within the APC/C
Described as above. As to conditions: both partners purified.

B1: CDH1 (APC/C coactivator subunit) (natural protein, human, UniProt Q9UM11-2 1-493, looked up)
chain: MDQDYERRLLRQIVIQNENTMPRVTEMRRTLTPASSPVSSPSKHGDRFIPSRAGANWSVNFHRINENEKSPSQNRKAKDATSDNGKDGLAYSALLKNELLGAGIEKVQDPQTEDRRLQPSTPEKKGLFTYSLSTKRSSPDDGNDVSPYSLSPVSNKSQKLLRSPRKPTRKISKIPFKVLDAPELQDDFYLNLVDWSSLNVLSVGLGTCVYLWSACTSQVTRLCDLSVEGDSVTSVGWSERGNLVAVGTHKGFVQIWDAAAGKKLSMLEGHTARVGALAWNAEQLSSGSRDRMILQRDIRTPPLQSERRLQGHRQEVCGLKWSTDHQLLASGGNDNKLLVWNHSSLSPVQQYTEHLAAVKAIAWSPHQHGLLASGGGTADRCIRFWNTLTGQPLQCIDTGSQVCNLAWSKHANELVSTHGYSQNQILVWKYPSLTQVAKLTGHSYRVLYLAMSPDGEAIVTGAGDETLRFWNVFSKTRSTKESVSVLNLFTRIR
notes: CDH1, human; the last residue printed for CDH1 is 493 (chimera: residues 24 to 493 of CDH1), so the isoform of 493 residues is meant; the tag is told in the methods for CDH1 in general; source: expressed and purified as described previously [19,23,27]
With B1, the binding result in assay [1] and in assay [2] was “binds” in each case.

The values above are taken from doi:10.1101/2023.08.31.555674, “New structural features of the APC/C from high-resolution cryo-EM structures of apo-APC/C and APC/C^CDH1:EMI1 complexes” (bioRxiv, 2023).
